Measured values reported in the supplement of paper PMC9170038.

Key:
[1] = test system: MS2 coat protein; experiment: apparent KD of MS2 coat protein; higher = weaker reporter binding; conditions: Eterna round: R107
Description: (§1)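 RNA-MaP round R107: designed RNA switches with theophylline, tryptophan, arginine or FMN aptamers are transcribed on-chip within common flanks. They are titrated with SNAP-549-labelled MS2 coat protein in RNA-MaP buffer (100 mM Tris pH 7.5, 80 mM KCl, 4 mM MgCl2), without ligand or with the indicated ligand. Median apparent KD per design.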

[2] = test system: K4 kissing-loop RNA reporter; experiment: apparent KD of K4 kissing-loop reporter; higher = weaker reporter binding; conditions: Eterna round: R107;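 also: bound reporter read as fluorescence of individual clusters on recovered sequencing chips by microscopy, with normalized cluster intensities fitted with a binding model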
Description: as §1, with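 “a labelled K4 kissing-loop RNA reporter” for “SNAP-549-labelled MS2 coat protein”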

[3] = input ligand: theophylline 20 uM
[4] = input ligand: theophylline 2 mM
[5] = input ligand: tryptophan 2.4 mM

Row | Sequence | apparent KD of MS2 coat protein ([1]; input ligand: arginine 13.2 mM) [nM] | apparent KD of MS2 coat protein ([1]; input ligand: none) [nM] | apparent KD of MS2 coat protein [1, 3] [nM] | apparent KD of MS2 coat protein [1, 4] [nM] | apparent KD of MS2 coat protein [1, 5] [nM] | apparent KD of K4 kissing-loop reporter ([2]; input ligand: FMN 200 uM) [nM] | apparent KD of K4 kissing-loop reporter ([2]; input ligand: arginine 13.2 mM) [nM] | apparent KD of K4 kissing-loop reporter ([2]; input ligand: none) [nM] | apparent KD of K4 kissing-loop reporter [2, 3] [nM] | apparent KD of K4 kissing-loop reporter [2, 5] [nM]
1 | AAACAUGAGGAUCACCCAUGUCCUCGUGAUCGAGGACCGGUACGGCCGCCACUCGGUCCUCGCGAGGUGGAGUCAAAGACUCCAA [Omei Trp A SS A v7] | 73.9 | 182 | 215 | 115 | 69.5 | – | – | – | – | –
2 | ACACAUGAGGAUCACCCAUGUGCAAUAGAUACCAGUGACGCGGUGCACCCUUGGCAGCUGUUGCUGAGUGAUGGUUCCCUCGGAA [Exclusion Theophylline A GF 6] | 17.9 | – | 57.6 | – | 42.1 | – | – | – | – | –
3 | CCUCAUGAACAUGAGGAUCACCCAUGUACACGAGGACCGGUACGGCCGCCACUCGAAUAAGCUAAAUAUAAAUAAUAAUAAUAGC [5' end split MS2] | 18.4 | – | 18.3 | 16.8 | – | – | – | – | – | –
4 | UUAUUUAACGGAAGGAGCGCGGAUAAAAUAGUGGGUAAACAUGAGGAUCACCCAUGUAAACCGCAGGUAGGUCGCCGAUAUUUAU [AstrosEXyARgB#5] | 21.5 | 43.1 | 48.8 | 33.2 | 35.9 | – | – | – | – | –
5 | UAGGACAUGAGGAUCACCCAUGUUGUACGGCGAGGACCGGUACGGCCGCCACUCGAGGCGUAAGUAGUAAAGAAUCUGAUUCAAU [theeternabot_sameState_MS2_Trp_A_4] | 13.7 | – | 40.9 | 20.7 | – | – | – | – | – | –
6 | AAUAAUAAGGCGGCCGCCACUACACAUGAGGAUCACCCAUGUCUCGCGGGCUUGCGUUGGGAAUGUAGGACCGGGCCAAUAAUAA [Exclusion - Tryptophan B (Freestyle 10)] | 14.3 | – | 25.8 | 27.9 | – | – | – | – | – | –
7 | GGAUAGGACAGAAGGAGCGACAUGAGGAUCACCCAUGUCUACCACGUCGAAAGACGCUCAUGUCAGGUAGGUCGCUGUCCUAUCG [ArgXB 9 #StaticStem #MS2LeftOffAptamer] | 101 | 153 | 191 | 183 | 113 | – | – | – | – | –
8 | AGGUGCAAAGCACCCUCUGGCCCUCGUGAAGGAGCGCUCGAAAGAGCAGGUAGGUCGCAUGAGGAUCACCCAUGUGAGCCAGAGA [Arg A Exc A v1] | 35.1 | 52.5 | 83.5 | 65.3 | 56.2 | – | – | – | – | –
9 | GGGUACAUCGCGGCCGCCACUUAUGUAAAUACAUGAGGAUCACCCAUGUCGAUGGAGACAUCGGAGAGGACCGGGUGAUGUACCG | 28.2 | – | 41.6 | 48 | – | – | – | – | – | –
10 | UAUCCACAUGAGGAUCACCCAUGUAAGGAAGGAGCGGUGAAUGAACCAGGUAGGUCGCCUUGGUGAGGAUCAUCUAUGGAUUCGU [Exclusion - Arginine A (Freestyle 10)] | 28 | 36.8 | 65.9 | 43.5 | 41.8 | – | – | – | – | –
11 | UGUAUGUGAUCUGAUACCAGCCUCAUAACUUGAGGAUCACCCAAGUGGAGCGGAAACGCUGGCCCUUGGCAGCAGAUCGCAUACU [TheoBS 2 #AlternativeMS2] | 205 | 460 | 200 | 15.3 | 556 | – | – | – | – | –
12 | GGUGGCGUGACGGAUACCAGCCACCGCCGCAAGGCAACAUGAGGAUCACCCAUGUUGGGUGGCCCUUGGCAGCUGUCGUGCGGCG [#1 Same State - Theophylline B Attempt #22 (HarryS)] | 13.3 | 195 | 151 | 159 | 50.2 | – | – | – | – | –
13 | GGCCCUGCGAGCGCUCGCAGGGCCGCGGAUACCAGCGAGGUCCAUCGCCCUUGGCAGCCGAACAUGAGGAUCACCCAUGUCGGUA [#1 Same State - Theophylline A Attempt #13 (HarryS)] | 7.87 | 9.84 | 12.9 | 18.3 | 9.44 | – | – | – | – | –
14 | GCUGUAAGUGCAGAUACCAGCAGGUGAUAUUUCUAAUGACAUGAGGAUCACCCAUGUAACUGCCCUUGGCAGCUGCACUUACAGC [SSTHB #8] | 48.5 | – | 32.1 | – | 59.6 | – | – | – | – | –
15 | UCGGGCAGAGCGGCCGCCACUGUUUGGCGUGCGGAUGACGGAACAUGAGGAUCACCCAUGUUGAUUAGGACCGGGCUUGCGGAGA [qpqullin] | 11.3 | 14.7 | 24.1 | 13.8 | 14.7 | – | – | – | – | –
16 | GGACUAACCAGAAGGAGCGGCACAAAGCAGAAACUGCAUCCUCCGCACGAGGAUCACCCGUGUCAGGUAGGUCGCUGGUUAGUCG [ArgBX 28] | 46.2 | 57.5 | 70.6 | 69.5 | 62 | – | – | – | – | –
17 | AACGUCUUGUCGGCCGCCACUGUAUGGUGCGUGACAUGAAACAUGAGGAUCACCCAUGUAGCAUGCAGGACCGGGACAGUGCCAA [Beriaran] | 7.49 | – | 13.9 | 11.6 | – | – | – | – | – | –
18 | UUUGAUAGAACAGAUACCAGCGUGUUAUAAAACAUGAGGAUCACCCAUGUAGUGAUCAAGCGCCCUUGGCAGCUGGUUUGUUAGG [7.I] | 76.4 | – | 122 | – | 161 | – | – | – | – | –
19 | ACGCUGAUUGAUUACAAUCAGCGAAAAGAUACCAGUGGGUAAUCCCACCCUUGGCAGCUUAAACAUGAGCAUCAGCCAUGUGGUA [TheoAS 15 #MS2Right #BothOrNeither #AlternativeMS2] | 77.9 | 119 | 114 | 37.2 | 142 | – | – | – | – | –
20 | UGAAAGUAGGGAAGGAGCGCUACAACAUGAGGAUCACCCAUGUAAUGAGGAUCACCCAUGUGGCAGGUAGGUCGCCCAAAACAUG [#14 Same State - Arginine B] | 85 | 167 | 151 | 197 | 181 | – | – | – | – | –
21 | GGGUGGUAGGCGGCCGCCACUGAUUUUUAUAUAUAUAUGACAUGAGGAUCACCCAUGUAGAUAUGCAGGACCGGGCCUGUUGUUU [aaaN] | 22.4 | 22.2 | 28.2 | 22 | 28.3 | – | – | – | – | –
22 | AGGGUUAAUUAGUCUUUUUUCACAUUAAGUCAGGAUAUCGUAUUUUCGAGAAGGGACACAUGCUAGUGAUGUUAGCUAUUUCCCA [#02 K4 FMN A Exclusion] | – | – | – | – | – | 77.3 | 115 | 90.6 | 122 | 86.2
23 | AAGGGCUAGGCGGCCGCCACUGGUCGUGUACACAUACAAACCAGUGAUGUUGGUAUUGUAUGCGACAGGACCGGGCCUAGCCGAA [Exclusion - Tryptophan B (Freestyle 28)] | – | – | – | – | – | 280 | 229 | 323 | 258 | 481
24 | GGGAAUUACGGAGGAUAUGCACUGAGGAGGAGAAUAUAGUGAUGUUAUAUAAGAGGAAGGAGAAGAGUAGAAGGCCGUGGAAAGG [SSFMNB.D] | – | – | – | – | – | 226 | 161 | 203 | 217 | 141
25 | AUGUAUGAAUUAGGAUAUCGUGAGCUUUGCAUAUAUAUGAUAAAUGGAUAUGUCGUAGUGAUGUUACGAGAAGGAGUGUGGAGUA [KL-XFMN-B3] | – | – | – | – | – | 52.4 | 55.7 | 43.9 | 65.8 | 37.4
26 | AGAACUGUCUGAGAUACCAGCUAAGGAGUGAUGUUCCGGCUCGACGAAACGUCGAGCCAUAGCCCUUGGCAGCUCAGACAGUUCA [#27 K4 Theophylline B Same State] | – | – | – | – | – | 431 | 183 | 378 | 873 | 244
27 | CGGUACGUCGCAGGAUAUGUAAAUGUAAGUGAUGUUUACAUACCAUGCUGGCGAAAGCCAGCAUGGACAGAAGGGCGACGUACCG | – | – | – | – | – | 111 | 354 | 470 | 328 | 506
28 | UCCAAGGACGAACCGGUAUGAUCACCGGAUACCAGAGGCGAAAGCCUCCCUUGGCAGCCGAGUGUAGUGAUGUUACACUGGUUCU | – | – | – | – | – | 89.8 | 82.8 | 90.7 | 94.5 | 91.5
29 | GUGGAAUUAUGAAAGUGGUUUUAUUAGGAAGGAGCGGCCGAAAGGCCAGGUAGGUCGCCUAUUGACAGUGAUGUUGUUAUAUGGU [#14] | – | – | – | – | – | 158 | 199 | 151 | 204 | 94.3
30 | CUAUAUAGUGAUGUUAUAUAGAUAACAGAUACCAGCUAGAAAACUAGCCCUUGGCAGCUGAUAAGGGAAAGUAUAAUUGUGUAAA [AstroSTH-A#DifdesignED20.18] | – | – | – | – | – | 82.1 | 73 | 76 | 64.8 | 73.7
